In patent publication US20200291075A1 (TRUSTEES OF PRINCETON UNIVERSITY, published 2020):
Changes are numbered by the printed parent chain. In names and notes the source's numbering stands. Several values for one entry are separate records, joined by “and”; a condition that tells them apart may be missing. Identical values can stand only once. Like-named read-outs stand apart in the source and are kept apart here.

Tests used:
iLID-CAAX [1] = assay: cytosol-to-membrane redistribution in NIH3T3 cells
iLID-CAAX [2] = assay: cytosol-to-membrane translocation in NIH3T3 cells
[3] = molecular target: mCherry (purified, His-tag cleaved off); assay: OCTET BLI; His-tagged nanobody on Ni-NTA biosensor, tag-free mCherry in solution
[4] = molecular target: mCherry (purified, His-tag cleaved off); assay: BLI (Octet RED96e); His-tagged nanobody on Ni-NTA sensor, tagless mCherry in solution; no illumination
YFP-SH2 [5] = molecular target: T1, YFP-SH2 (human, UniProt P00519 112-232); assay: BLI; binder on Ni-NTA sensor, YFP-SH2 in solution; lit conformation, ambient light
T1 construct: domain: SH2 domain; also called SH2-tagged YFP; EZ-L703
T1 sequence (looked up): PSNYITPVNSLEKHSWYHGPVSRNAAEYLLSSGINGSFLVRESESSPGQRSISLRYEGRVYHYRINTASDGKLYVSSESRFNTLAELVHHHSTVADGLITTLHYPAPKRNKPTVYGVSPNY
Method: (§1) Ni-NTA sensors (ForteBio) were first equilibrated using Buffer A for 10 minutes prior the measurement. A volume of 200 μL of Buffer A or protein solutions (previously dialyzed with Buffer A when needed) was added to clear, 96-well plates. During the experimental run, the Ni-NTA sensors were first immersed in Buffer A to record the baseline. […] The sensors were then transferred back into Buffer A to remove unbound protein. […] To measure the unbinding rate constant (koff), the sensors were then moved to wells containing Buffer A to trigger dissociation of YFP-SH2. To measure binding kinetics of the light state, the lid of the Octet remained open during the measurement and a blue LED panel was held above the 96-well plate, maintaining constant blue illumination for the duration of the experiment. […] The raw binding and unbinding data were simultaneously fit to models of the binding and unbinding reactions:

YFP-SH2 [6] = molecular target: T1, YFP-SH2; assay: BLI; binder on Ni-NTA sensor, YFP-SH2 in solution; lit conformation, 450 nm light
Method: as §1

YFP-SH2 [7] = molecular target: T1, YFP-SH2; assay: BLI; His-tagged binder on Ni-NTA sensor, YFP-SH2 in solution; light conformation; average of three measurements
Method: as §1

YFP-SH2 [8] = molecular target: T1, YFP-SH2; assay: BLI; Kd of OptoMBV416L (light) against Kd of OptoMBC450V (dark)
Method: as §1

YFP-SH2 [9] = molecular target: T1, YFP-SH2; assay: LCAC in batch, Talon resin; share of the resin-bound target eluted by blue light
Method: (§2) After elution, beads were washed with imidazole to recover any remaining protein bound to the beads in order to estimate the capacity and yields of the resin.
(§3) The Resin was rotated in 50 mL conical tubes (covered with aluminum foil) at room temperature for 20 minutes and then poured in 20 mL BioRad glass Econo-Columns and washed with Buffer A (50 column volumes). […] The mixture was then vertically rotated gently for 45 minutes in 15 ml conical tubes.

SH2-PDC1 [10] = molecular target: T2, SH2-PDC1 (human; Saccharomyces cerevisiae); assay: as above
T2 construct: No His tag; also called SH2-tagged Pdc1p; EZ-L886
T2 chain: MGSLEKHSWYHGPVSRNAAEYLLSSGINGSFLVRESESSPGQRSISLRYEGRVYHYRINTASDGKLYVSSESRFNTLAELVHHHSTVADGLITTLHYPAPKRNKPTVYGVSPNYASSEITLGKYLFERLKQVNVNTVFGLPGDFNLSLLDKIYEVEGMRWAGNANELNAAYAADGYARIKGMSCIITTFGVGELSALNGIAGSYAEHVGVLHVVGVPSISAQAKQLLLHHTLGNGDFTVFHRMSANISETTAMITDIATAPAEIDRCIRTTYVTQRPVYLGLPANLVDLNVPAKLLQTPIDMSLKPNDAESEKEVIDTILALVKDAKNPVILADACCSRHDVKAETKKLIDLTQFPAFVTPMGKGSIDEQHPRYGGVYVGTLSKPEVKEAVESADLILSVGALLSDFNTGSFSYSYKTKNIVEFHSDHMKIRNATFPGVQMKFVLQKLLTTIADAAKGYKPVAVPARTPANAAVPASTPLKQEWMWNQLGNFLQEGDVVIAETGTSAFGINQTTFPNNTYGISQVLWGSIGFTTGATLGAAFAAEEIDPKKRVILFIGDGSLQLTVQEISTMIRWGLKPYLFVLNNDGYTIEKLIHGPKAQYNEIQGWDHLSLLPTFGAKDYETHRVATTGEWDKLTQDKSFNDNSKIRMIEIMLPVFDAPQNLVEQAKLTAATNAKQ
Method: as §2, §3

YFP-SH2 [11] = molecular target: T1, YFP-SH2; assay: BLI; SUMO-tagged binder on Ni-NTA sensor, YFP-SH2 in solution; lit conformation, ambient light
Method: as §1

YFP-SH2 [12] = molecular target: T1, YFP-SH2; assay: LCAC in batch; His-tag bound OptoMB on Talon cobalt resin, target from crude E. coli lysate bound in the dark
Method: as §2, §3

SH2-PDC1 [13] = molecular target: T2, SH2-PDC1; assay: as above
Method: as §2, §3

YFP-SH2 [14] = molecular target: T1, YFP-SH2; assay: BLI; lit-state against dark-state OptoMB variants
Method: as §1

YFP-SH2 [15] = molecular target: T1, YFP-SH2; assay: BLI; His-tagged binder on Ni-NTA sensor, YFP-SH2 in solution; light conformation
Method: as §1

YFP-SH2 [16] = molecular target: T1, YFP-SH2; assay: BLI; binder on Ni-NTA sensor, YFP-SH2 in solution; dark conformation, ambient light
Method: as §1

YFP-SH2 [17] = molecular target: T1, YFP-SH2; assay: BLI; binder on Ni-NTA sensor, YFP-SH2 in solution; dark conformation, 450 nm light
Method: as §1

YFP-SH2 [18] = molecular target: T1, YFP-SH2; assay: BLI; His-tagged binder on Ni-NTA sensor, YFP-SH2 in solution; dark conformation; average of three measurements
Method: as §1

His6-YFP-SH2 [19] = molecular target: T3, His6-YFP-SH2 (human, UniProt P00519 112-232); assay: pull-down on His6-YFP-SH2 cobalt beads, SDS-PAGE densitometry
T3 construct: domain: SH2 domain; also called 6xHis-YFP-protein fusion
T3 sequence (looked up): T1 sequence (looked up)
Method: (§4) The His6-YFP-SH2 supernatant was then mixed with 4.5 mL of a 50% suspension of Co-charged agarose resin (Talo®), previously equilibrated in Binding buffer, and incubated at 4° C., rocking for 45 min. The suspension was sedimented by gravity and the supernatant discarded. The beads were then thoroughly washed with Binding buffer with approximately 50 times the resin or column volume. The beads (now with His6-YFP-SH2 bound) were then finally resuspended in Binding buffer to a total volume of 13.5 mL. The bead suspension was equally divided into 9 conical tubes of 15 mL (having each 1.5 mL of the bead suspension). Four of these tubes were used for experiments under blue light with LED panels (450 nm and intensity of 45 μmol/m²/s) while the other four were used for experiments in the dark (wrapped in aluminum foil). Experiments were performed in a dark room and red light was used occasionally for visualization purposes. The remaining tube was left as a control for His6-YFP-SH2 binding. Samples of 2.5 mL of bacterial clarified lysates containing either the monobody HA4 supernatant or each one of the chimeras were added to separate tubes of resin. The mixtures were then incubated for 45 minutes (at 4° C. and constant vertical rotation of 20 rpm) under blue light or dark conditions. […]

His6-YFP-SH2 [20] = molecular target: T3, His6-YFP-SH2; assay: pull-down on Co2+ agarose beads with His6-YFP-SH2, crude chimera lysate, light or dark, SDS-PAGE
Method: as §4

His6-YFP-SH2 [21] = molecular target: T3, His6-YFP-SH2; assay: as above; remark: listed apart in the source
Method: as §4

YFP-SH2 [22] = molecular target: T1, YFP-SH2; assay: BLI (Octet RED96e); His-tagged binder on Ni-NTA sensor, YFP-SH2 in solution
YFP-SH2 [23] = molecular target: T1, YFP-SH2; assay: BLI; binder on Ni-NTA sensor, YFP-SH2 in solution; ambient light

BFP-SSPB-SOScat
change in cytosolic intensity between light conditions (iLID-CAAX [1]): 60% | change in cytosolic intensity between light and dark (iLID-CAAX [2]): 60%

LaM8 anti-mCherry nanobody (His-tagged, purified) (VHH)
Kd [3]: 322 nM | koff [3]: 0.02 s⁻¹ | kon [3]: 75200 M⁻¹ s⁻¹ | Kd [4]: 230 nM | koff [4]: 0.018 s⁻¹ | kon [4]: 76000 M⁻¹ s⁻¹

B1: OptoMBV416L (designed binder)
chain: HHHHHHGSGSGSDQEAKPSTEDLGDKKEGEYIKLKVIGQDSSEIHFKVKMTTHLKKLKESYCQRQGVPMNSLRFLFEGQRIADNHTPKELGMEEEDVIEVYQEQTGGHMASKGSSVSSVPTKLEVVAATPTSLLISWDAPMSSSSVYYYRITYGETGGNSPVQEFTVPYSGLERIEKNFLITDPRLPDNPIIFASDSFLQLTEYSREEILGRNCRFLQGPETDRATVRKIRDAIDNQTEVTVQLINYTKSGKKFWNLFHLQPMRDQKGDVQYFIGVQLDGTEHVRDAAEREGVMLIKKTAENIDEAAGSSTATISGLSPGVDYTITVYAWGEDSAGYMFMYSPISINYRTC
notes: T0006 lists the V416L plasmid with His6-SUMO; also called OptoMBV416L 1; OptoMBV416L 2
Kd (YFP-SH2 [5]): 87000 nM | koff (YFP-SH2 [5]): 0.25 s⁻¹ | kon (YFP-SH2 [5]): 2900 M⁻¹ s⁻¹ | Kd (YFP-SH2 [6]): 60000 nM and 42000 nM | koff (YFP-SH2 [6]): 0.2 s⁻¹ and 0.24 s⁻¹ | kon (YFP-SH2 [6]): 3300 M⁻¹ s⁻¹ and 5800 M⁻¹ s⁻¹ | Kd (YFP-SH2 [7]): 63000 nM | koff (YFP-SH2 [7]): 0.23 s⁻¹ | kon (YFP-SH2 [7]): 4000 M⁻¹ s⁻¹ | fold change in binding affinity, light against dark (YFP-SH2 [8]): ~330 fold

B2: OptoMBV416I_G528A_N538E (His6-SUMO tagged) (designed binder)
chain: B1 chain with L180I, G292A, N302E
notes: also called OptoMBTriple
Yield (% of recovery from the resin) (YFP-SH2 [9]): 29.8% | Yield (% of recovery from the resin) (SH2-PDC1 [10]): 39% | Kd (YFP-SH2 [11]): > 100000 nM | koff (YFP-SH2 [11]): 0.1 s⁻¹ and 0.13 s⁻¹ | kon (YFP-SH2 [11]): < 1000 M⁻¹ s⁻¹ | Resin Capacity (YFP-SH2 [12]): 4.5 mg/mL | Resin Capacity (SH2-PDC1 [13]): 5.24 mg/mL

B3: OptoMB (His6-tagged, wild-type AsLOV2) (designed binder)
chain: HHHHHHSSGENLYFQGHASGSSVSSVPTKLEVVAATPTSLLISWDAPMSSSSVYYYRITYGETGGNSPVQEFTVPYSGLERIEKNFVITDPRLPDNPIIFASDSFLQLTEYSREEILGRNCRFLQGPETDRATVRKIRDAIDNQTEVTVQLINYTKSGKKFWNLFHLQPMRDQKGDVQYFIGVQLDGTEHVRDAAEREGVMLIKKTAENIDEAAGSSTATISGLSPGVDYTITVYAWGEDSAGYMFMYSPISINYRTC
notes: also called OptoMB 1; OptoMB 2
fold change of kon and koff, light against dark (YFP-SH2 [14]): ~20 fold | Kd (YFP-SH2 [5]): > 100000 nM | koff (YFP-SH2 [5]): 0.34 s⁻¹ | kon (YFP-SH2 [5]): < 1000 M⁻¹ s⁻¹ | koff (YFP-SH2 [15]): 0.21 s⁻¹ | kon (YFP-SH2 [15]): < 1000 M⁻¹ s⁻¹ | Kd (YFP-SH2 [6]): > 100000 nM | koff (YFP-SH2 [6]): 0.21 s⁻¹ | kon (YFP-SH2 [6]): < 1000 M⁻¹ s⁻¹ | Yield (% of recovery from the resin) (YFP-SH2 [9]): 17.8% | Resin Capacity (YFP-SH2 [12]): 5.85 mg/mL

B4: OptoMBC450V (designed binder)
chain: B3 chain with C121V
notes: also called OptoMBC450V 1; OptoMBC450V 2
koff (YFP-SH2 [16]): 0.006 s⁻¹ and 0.013 s⁻¹ | kon (YFP-SH2 [16]): 110000 M⁻¹ s⁻¹ and 56000 M⁻¹ s⁻¹ | Kd (YFP-SH2 [17]): 270 nM | koff (YFP-SH2 [17]): 0.013 s⁻¹ | kon (YFP-SH2 [17]): 48000 M⁻¹ s⁻¹ | Kd (YFP-SH2 [18]): 190 nM | koff (YFP-SH2 [18]): 0.01 s⁻¹ | kon (YFP-SH2 [18]): 71000 M⁻¹ s⁻¹

B5: HA4-AsLOV2 chimera, SS58 insertion, untagged (OptoMB) (designed binder)
chain: GSSVSSVPTKLEVVAATPTSLLISWDAPMSSSSVYYYRITYGETGGNSPVQEFTVPYSGLERIEKNFVITDPRLPDNPIIFASDSFLQLTEYSREEILGRNCRFLQGPETDRATVRKIRDAIDNQTEVTVQLINYTKSGKKFWNLFHLQPMRDQKGDVQYFIGVQLDGTEHVRDAAEREGVMLIKKTAENIDEAAGSSTATISGLSPGVDYTITVYAWGEDSAGYMFMYSPISINYRTC
notes: Used as crude E. coli extract in the pull-down screen; also called alphaSH2 OptoMonobody; EZ-L706
band intensity, dark against light (His6-YFP-SH2 [19]): ~2.1 fold

B6: HA4-AsLOV2 chimera, SA84 insertion (designed binder)
chain: GSSVSSVPTKLEVVAATPTSLLISWDAPMSSSSVYYYRITYGETGGNSPVQEFTVPYSSSTATISGLSPGVDYTITVYAWGEDSGLERIEKNFVITDPRLPDNPIIFASDSFLQLTEYSREEILGRNCRFLQGPETDRATVRKIRDAIDNQTEVTVQLINYTKSGKKFWNLFHLQPMRDQKGDVQYFIGVQLDGTEHVRDAAEREGVMLIKKTAENIDEAAGAGYMFMYSPISINYRTC
binding result (His6-YFP-SH2 [20]): no binding

B7: HA4-AsLOV2 chimera, SG65 insertion (designed binder)
chain: GSSVSSVPTKLEVVAATPTSLLISWDAPMSSSSVYYYRITYGETGGNSPVQEFTVPYSSSTATISGLERIEKNFVITDPRLPDNPIIFASDSFLQLTEYSREEILGRNCRFLQGPETDRATVRKIRDAIDNQTEVTVQLINYTKSGKKFWNLFHLQPMRDQKGDVQYFIGVQLDGTEHVRDAAEREGVMLIKKTAENIDEAAGGLSPGVDYTITVYAWGEDSAGYMFMYSPISINYRTC
binding result (His6-YFP-SH2 [21]): no binding

B8: Monobody HA4 (His6-tagged, purified) (designed binder)
chain: HHHHHHSSGENLYFQGHASGSSVSSVPTKLEVVAATPTSLLISWDAPMSSSSVYYYRITYGETGGNSPVQEFTVPYSSSTATISGLSPGVDYTITVYAWGEDSAGYMFMYSPISINYRTC
Kd (YFP-SH2 [22]): 230 nM | koff (YFP-SH2 [22]): 0.0145 s⁻¹ | kon (YFP-SH2 [22]): 63100 M⁻¹ s⁻¹ | Kd (YFP-SH2 [23]): 280 nM | koff (YFP-SH2 [23]): 0.0145 s⁻¹ | kon (YFP-SH2 [23]): 51000 M⁻¹ s⁻¹

B9: HA4-AsLOV2 chimera, NS47 insertion (designed binder)
chain: GSSVSSVPTKLEVVAATPTSLLISWDAPMSSSSVYYYRITYGETGGNGLERIEKNFVITDPRLPDNPIIFASDSFLQLTEYSREEILGRNCRFLQGPETDRATVRKIRDAIDNQTEVTVQLINYTKSGKKFWNLFHLQPMRDQKGDVQYFIGVQLDGTEHVRDAAEREGVMLIKKTAENIDEAAGSPVQEFTVPYSSSTATISGLSPGVDYTITVYAWGEDSAGYMFMYSPISINYRTC
binding result (His6-YFP-SH2 [20]): no binding
